A protein production outcome set (Wang et al. 2014)

Experiment: label from the status in PepcDB records

Sequence | protein production
MLFIFLTIAALGLSFWAQFKVKSNFEKYSKVEASSGRTGAETARRILDINGLYDVPVEPVRGTLTDHYDPTRRVVRLSEPVYYGRSISAISVASHEVGHALQHQESYGALVLRHKIFPVVNFASGVAPLLFLGGMLLGSLNLIGLGIILFSAAVFFQLITLPVEFNASSRAKQIIVSEGFIRNNEENGVNKVLSAAALTYVAAALVSLFELLRFVMIFLNGRDEN | failed
MPKMIMVNKKASESQVMELEKRNYNNPVVLCGFAGSTPTGVLAASYIVETLGMHQVAHLISQHIPPVAVFVGGKLRHPFRIYANNSNTVLVAMCEVPISSAHIYEISNTLMNWIDQVGASEIVIMEGSPANGIPEERPVFAVAEKPKLDKFKKAGIQPADSAIIAGMGGGILNECLVRKITGLSFITPTSVDIPDPGAVLSIIEAINKAYNLKIKTDLLEEQVKALDEQIKKIEEQYKELQEKQKEPQSMYG | not failed
MGHHHHHHSHMTCGAWEMKERLGTGGFGNVIRWHNQETGEQIAIKQCRQELSPRNRERWCLEIQIMRRLTHPNVVAARDVPEGMQNLAPNDLPLLAMEYCQGGDLRKYLNQFENCCGLREGAILTLLSDIASALRYLHENRIIHRD | failed
MKWSEISIHTTEEAVEAVSHILHEAGASGVAIEDPAELTKEREQQYGEIYALNPDEYPAEGVLIKAYFPQTDSLHETIAGVKSSIDVLPSYDIEIGTGNITVNEVNEEDWATAWKKYYHPVQISDTFTIVPTWEEYTPSSPEEKIIELDPGMAFGTGTHPTTTMCIRALEKTVQPGDTIIDVGTGSGVLSIAAAKLGASSVQAYDLDPVAVESAEMNVRLNKTDDVVSVGQNSLLEGIEGPVDLIVANLLAEIILLFPEDAARVVKSGGLFITSGIIAAKEKVISEALEKAGFTIEEVLRMEDWVAIIARNA | failed
MGAVVVEPGSSSMVLGPEQVLDRASMHLANGLLGNPDSAAGLEVLLGGLKLRFVSGSAVAVTGAEGMVTLDGTELPLNKAVRVPPGAVLELGPAMFGIRYYLAVQGGISAQGEAAQGEAIRAGAALTFGRPNNHGSPEVNHPARRALDPERPVVARVSRGPQAQNDDAGTWLRLTSEPWILSPESDRAGARLVGRPLDVTSAPIPQAQPLVSGSVLLPSSGLPVIALAGHPDTSQSPVIAVVRDEDLDVLGQARPGQMVHLLG | failed
MKNFFNHIELKFANLLSKISFMLLMVVGLLMVYFLFREVYNLVLLAFLSESEVHYYDILESILSFFIFFEFLTLIITSLRNKGHVSLIFLLSLGITSLIRLLLTYHERLVGVLLIASAILILIIGVFVLKKFVFPNDDTADYF | failed
MTLLWGLLSGMAVIGGLIGVVAGLVGTTAPRRAPLQQRWQALRAGKDQGEDVRLRRRTLAALAVVVFVAVWLVSGNFVGGALLGVAVVGVPWLISPAQMAQERIGQLEALSEWTQRLAGLLRLGMGLEQAMITSRQGAPDELAPQIVNLSDRLRLGWRPDGALRAFAEELNDVTADKVVAALILSVNDRGPGLAQALEDLAGTVRDEVAKKRAIEADRAKPRTTVRWMTVITVGVVVAGFFVPSYTKPYSTLLGQLVLAFLTVGFIGVLALMRQLGAFRRIPRFLITDPSSTVRLPLAGDGAGRAGRWP | failed
MSPPGQHYAQADAPQRPVLVQESSYLQLSSEAAEFVTQCQICGKPCQLADEPLWTTLATTIPSTIGAMAVSSAPHLPSGSFEWLTAGRVDPGSRVVVLCPTVAHCRAVASHGADVLAVHRDPDTAEKLNRIPGVMAVCGSPESLPLNSSSFDAVLVHQGFHELAPGLALPEIARVLRPGSVLGVSWLVRDDTVPWVKRLAALLRTVDENAMSGDYGTESVHELISSKYFPEDEHTTKRLWVPVNRDSLVAMAAARPAVRALDSDARSNVLTKVAALADDSAGTSGLRLPYQLECWRAWVDHDELTTPIRPHDDGLTITL | failed
MANFIEKITYLGTPAIKAGNEHLEMIVVPEWGSNVISLVDKTTNVQLLREPETAESFHDTPTLYGIPILFPPNRISDGTFSFRGRTYHFDINEKDKHNHLHGFLYHEKWNVVTTKQTDEGVIVETEIDLSELPHVQKQFPHHAVVRMTYTIKENTLFKHATVMNKGKEAFPWGIGYHTTFIFPAESSLFSLTADQQWELDERLLPTGKLMDVPYKEALHEGMDLRHKQLDDVFLSSYQKRGGENQAVIYHQHAHISIIYKADEQFKHWVVYNADGKQGYLCPEPYTWVTNAVNLDLPSSLTGLQVLEPGEETTAKSSITIELNHQ | not failed
MTEHSLWRFSRALHRALNDRQTEELATIIDDNIDWAIYGPIDMFPFFGARQGKAAVLEVCRQIADSVRIYRYHRESVMLGIDSAASMVRYSLTAAGTNRPISVRMALFTQFQNGRLTNLRMVLDTFDLVEQALGRPIHLPKIA | not failed
MSSWMMVPVVFLTAYSDPETIGRARRAGAYGYLLKPYDDRKLRAAVETALRRYRADVRDILKVHETAVRGPVPGVLIVEDEAIIAADLKQKLENAGFRVLGVHDTGEGAIAAASELEPDVVIMDVYIRGEMDGIKAAERIQERYGIPVIYLTAYSDDATLSRILESEPYGYLLKPLNTEQLQAEIEVVLENLRTTEDYSRRVREVLVTKAEEMKIEKTGIFFVSSVITALAVYGFITGSMTWLMYTLFIPTVYSLMHLAFSFGEPEKPSSSAMPMVSIIVPANNEENTIEGCVETLSALDYHVNGERNYEIIVVNDGSTDRTGEILEGLLRKHRHLKAVTRKAPFAFNGRVMPSMMVSPLPRGIL | failed
MCLKNNAKDEIMDSTKAWYQSRTIWGALIAVFAPLFSIAGFDLPAGLHGELAEGLVTVAGGIGGLIALYGRLSATRSIR | failed
MTSPSPDQVIRQEILALSAYHVPPAKDMVKLDAMENPYRLPPFLCEEISRIAADTSINRYPDPHAAALKEVLSTTLSVPAGMEIMLGNGSDEIIQIIMLAAAKPEAKLLTIEPGFAMFKMIATFANMQYIGIPLKPDFSLDIDRMLAAIERHQPSVIFLAYPNNPSGNLFDTSALEKIIEISPGLVVIDEAYHPFAGKSFIGRLADYPNLLVMRTLSKLGLAGLRLGLLAGRPEWLSHLEKLRLPYNVNVITQLVATKIMQHYDVLQQQADAIRQTRTRLRTFLENLNGIEVFPSNANFILFRLDGASQIFRLLQQHGILVKNLDNSHPLLKNCLRVTVGTPEENDRFCNTLQDLIAGN | failed
MRISKMLVTELNIYPLKSARGIALKESAVSAEGLPGDRRAMLTDPSGHFITQRELPAIATVLARHEDGGMALSRERSGEIFARPSGQRMDVAVWKSIVSANIADDETNDTLSAWLGREVKLVFFDDAAKRIASLEWTGNETPVTFADGYQILVTTTASLAALNDNMRGNGEDAVGMERFRPNIVLETEEAWAEDRWAAIEIGGIRFDLVKPCARCIMTTQDQMTGSRDVPSPMKAMGRIRMSGDRRVPGPLFGWNVTPRGEGRLSVGDVARVVEERPEGWAIKRRLEHHHHHH | not failed
MVKTRAQRIKRMSVVDALCIRSQISVKSARYCKTVSKHLAKLQLAESGKNSSLVVCPSMGKTMKLYSMDAKRCKLSLLSTIDPSQRTPEVFMYMISSYNGIICCVNMIYDEDVENKFCDLQIWICNPITKETLLLPQGTPSFEFEPSIGVAYGSDVSDYKVYRIFCTGKIIPEERGPAEGFYVQEGRFFTKYGHSLAYECEVYSSSTGSWKNIGTVPCLPMSCSLRPYRRTGHIFVGGKVYWLVSLDAPGKILSVDLEGKFEVINLPAYADGLREDEQITEASHLINLKGSLGLLVLHPENMDVWVWKHDGERYSWVFQFKDVVPIKDDELILAVTALDNKIICVNETHWRIYDMETEKWKRRKSPRTGFRNPVVLPFTESVLPCNGGVKQ | failed
MENNPNNNQASLERNELHNTIWKVANELRGSVDGWDFKQYVLGILFYRYISENMTHYINKEERKRDPSFDYAKLSDEKAERGRKHLIEQKGFFIPPSALFCNALKNACHNEDLNVTLQNIFNEIEKSSLGTPSEENVKGLFADLDVNSNKLGSSHQNRVEKLTKILEAIGGMQLGDYLKSGIDVFGDAYEYLMAMYASNAGKSGGEFFTPQEVSELLAKITLHGQESVNKVYDPCCGSGSLLLQFSKVLGDKNVSKGYFGQEINLTTYNLCRINMFLHDINYSKFHIAHGDTLLDPKHEDDEPFDAIVSNPPYSTKWVGDSNPILINDERFSPAGVLAPKNAADLAFTMHMLSYLSNSGTAAIVEFPGVLYRGNAEAKIREYLVKENVIDCVIALPDNLFFGTSIATCILVLKKNKQDDTTLFIDASKEFVKEGKKNKLKERNREKILQTYIERKEIKHFCALANIEKIKENDYNLSVNRYVEQEDTKEAIDIKALNSEIAQIVEKQSALRNRLESIIKELEGGQNA | failed
MRLLVAFAVIYFISISPVCAENTASTINIPTPAIESPLASKSLLLDISLIGQEKLVTVGQHGHILLSNDGKKWQQANVPVQVTLTNVFFLNEQLGWAVGHDATILHSQDGGLNWQVQQYLPLLEKPLFDIYFKNPQQGIAVGAYGQVFRTNDGGSTWQNEFHQEILLADDVEYLNELKAEDEAAYLDEITFILPHFNRLVQDGGSLFLLGETGLLAKSDDFGLTWQQFDNFYQGSFFSLARTKTGNVLVAGLRGHVFRSLNHGSQWDEVPTNTTALLNDIVFANDERIFILGNNGMLLISTDDGESFSKIPQQDGKTLIAGVWFKGQLIAVSDVGIKVVDLSQELEHHHHHH | failed
TAMRVSPHHPAPTPNPRASLNHSTAFNPQPQSQMQDTRQIQPSPPWSYDQSYQYLGSIASPSVHPATPISPGRASGMTTLSAELSSRLSTAPDLTAFSDPRQFPALPSISDP | failed
MTTMQQRYDAVKDAMAQIGRLAAQLDGEALREAIGPVLVALGERDELFPRDEFPIRAGKPGGLYQLWRGESGDLALYASAGKTGKKQPPHDHTTWAVIAGVYGEEHNVFFERTDDGSRAGFGTLRQIDALTVVQGNAARLSGEVFHTIEVVSEEDSLHLHLHLYGRALDTLSGRINFATEEGGAYTRFMAVPETYAPWIAPRDLYEMLTDGGELAILDVRENGVYTQGHLFHAASMPLSVFELRVDDGLPSPHVRIVVIDDADGLAEQAVRLLHQRGYHNVAVLQGGQPGWNAAGLPVYTGVFVPSKAFGEVAEHVYGTPSISAVELDALRRSEEVLVLDSRTEQEFNLMSVPGAYSCPGAELVARALDHAGPIVVNCAGRTRSIIGAQSLRNAGKTDVRALENGTMGQHLAGLPLERGKSASYLDRPVAAGAAQAAQAWALGMSIATLDAGELHDMLSNPYRTTYLFDARDPSCSSRATLPRAVAAPGGQLVQQTDYYAPVRNARIVVFDTDGVQAPMTAGWLHQMGWEVYLHRPEATALVAPPRVEYDDERGVPVEAVAADAVIIDVGDSRTYRAGHLAGAAWAPRSRLPALLAQRKPAGPLLFTCADGRVSRLAAADAAAQGYQAAYLKGGTAALGADRLRGDAPQFLTEAIDVWYRPYDRETGIEEAMHQYLSWETGLLDKVRSDPTVAFRI | failed
MSLKKKIAVVTGATGGMGIEIVKDLSRDHIVYALGRNPEHLAALAEIEGVEPIESDIVKEVLEEGGVDKLKNLDHVDTLVHAAAVARDTTIEAGSVAEWHAHLDLNVIVPAELSRQLLPALRAASGCVIYINSGAGNGPHPGNTIYAASKHALRGLADAFRKEEANNGIRVSTVSPGPTNTPMLQGLMDSQGTNFRPEIYIEPKEIANAIRFVIDAGETTQITNVDVRPRIELADRKEGHHHHHH | not failed
MARTLFLEEGPMFFEKIAPYTYRIPRQGKMRVDAVFFASKEILKDLEAENYASLQQLMNVATLPGIVEPALAMPDIHWGYGFPIGGVAAFDPEEGGVVSPGGVGFDINCGVRLLASHLTLEDLLPRQKELADALYRLVPSGVGSERRDVRFSKRELKEILKEGAGWLVKRGYGYPEDVRFIESQGRLPWANPDKVSERAFERGAPQIGTLGSGNHFLEVQYVDEVYDEEAALAFGLFKGQVTVLIHTGSRGLGHQVCQDYVERFLKVAPRYGIELVDKQLAAAPIKSPEGQDYLQAMAAAANFAFANRQLIAHFVREAFEKVGFTPRDHGLRVLYDLAHNNAKFEEHRGRRVLVHRKGATRAFGPGHPEVPEEYRRVGQPVLVPGDMGRYSYVLAGTEKAMEVSFGSSCHGAGRKMSRHQAKKVARERNLVKELAERGILVRAATRATVDEEMPEAYKDVSLVVEAVEGAGIGKKVARLRPLIVVKG | not failed
